Measured values from US20080044360A1 (COLLAGEN MEDICAL, published 2008).
Bridge positions count the residues as written; N and C are the ends. Square brackets hold non-standard residues; d marks the D form. Primed or numbered codes have the meaning given here. Side chains are listed from the residue outwards. Ends that are not written are not given here. * marks the point of attachment. Bpa = N[C@@H](Cc1ccc(C(=O)c2ccccc2)cc1)C(=O)O; Gd^D = GdDOTAGA (gadolinium DOTAGA chelate); Bip = N[C@@H](Cc1ccc(-c2ccccc2)cc1)C(=O)O; Gd^T(3) = GdDTPA attached via thiourea; 1Nal = N[C@@H](Cc1cccc2ccccc12)C(=O)O; 2Nal = N[C@@H](Cc1ccc2ccccc2c1)C(=O)O; Bta = N[C@@H](Cc1csc2ccccc12)C(=O)O; 1,4 AMB(Gd^T) = not defined here; Hyp = O=C(O)[C@@H]1C[C@@H](O)CN1; 2Pal = N[C@@H](Cc1ccccn1)C(=O)O; 4Pal = N[C@@H](Cc1ccncc1)C(=O)O; Gd^G = not defined here; Gd^T = not defined here; Gd^T″ = GdDTPA-thiourea; NH(CH2)6NH2 = NCCCCCCN*; Dap = NC[C@H](N)C(=O)O; AEEA = NCCOCCOCC(=O)O; Aib = CC(C)(N)C(=O)O

What was measured:
[1] = target: T1, human collagen type I, acid soluble, extracted from placenta (Sigma C7774) (human, UniProt P02452 162-1218; P08123 80-1119); experiment: dried collagen assay
T1 construct: tissue extract, gelled and dried in wells; also called dried human collagen; h-Collagen
T1 sequence (P02452 162-1218 limits assumed, chain 1 of 2): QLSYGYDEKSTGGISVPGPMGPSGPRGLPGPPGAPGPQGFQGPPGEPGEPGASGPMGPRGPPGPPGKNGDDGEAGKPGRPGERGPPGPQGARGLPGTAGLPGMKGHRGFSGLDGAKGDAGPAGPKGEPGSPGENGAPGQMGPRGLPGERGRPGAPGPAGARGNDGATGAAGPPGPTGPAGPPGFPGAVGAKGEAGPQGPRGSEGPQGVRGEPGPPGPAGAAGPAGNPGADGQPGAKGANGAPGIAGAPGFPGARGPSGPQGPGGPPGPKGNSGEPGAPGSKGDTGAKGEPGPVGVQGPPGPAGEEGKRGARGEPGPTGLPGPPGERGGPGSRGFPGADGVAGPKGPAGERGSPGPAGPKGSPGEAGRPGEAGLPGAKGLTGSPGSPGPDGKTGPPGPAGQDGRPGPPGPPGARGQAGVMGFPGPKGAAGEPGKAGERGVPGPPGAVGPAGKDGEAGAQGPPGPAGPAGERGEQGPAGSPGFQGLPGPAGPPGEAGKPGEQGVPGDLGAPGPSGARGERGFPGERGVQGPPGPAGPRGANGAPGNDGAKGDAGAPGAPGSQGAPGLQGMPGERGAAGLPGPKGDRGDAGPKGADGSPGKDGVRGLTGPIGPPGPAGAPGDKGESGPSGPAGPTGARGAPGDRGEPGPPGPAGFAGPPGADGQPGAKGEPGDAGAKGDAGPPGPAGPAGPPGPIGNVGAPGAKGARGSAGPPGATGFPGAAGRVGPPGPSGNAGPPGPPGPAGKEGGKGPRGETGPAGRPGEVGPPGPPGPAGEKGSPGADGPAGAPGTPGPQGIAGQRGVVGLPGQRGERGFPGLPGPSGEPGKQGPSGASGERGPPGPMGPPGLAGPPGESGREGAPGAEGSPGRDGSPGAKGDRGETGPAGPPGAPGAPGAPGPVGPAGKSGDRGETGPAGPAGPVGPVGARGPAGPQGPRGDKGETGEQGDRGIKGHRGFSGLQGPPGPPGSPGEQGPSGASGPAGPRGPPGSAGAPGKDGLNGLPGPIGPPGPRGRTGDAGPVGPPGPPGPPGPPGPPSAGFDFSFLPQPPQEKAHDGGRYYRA
T1 sequence (P08123 80-1119 limits assumed, chain 2 of 2): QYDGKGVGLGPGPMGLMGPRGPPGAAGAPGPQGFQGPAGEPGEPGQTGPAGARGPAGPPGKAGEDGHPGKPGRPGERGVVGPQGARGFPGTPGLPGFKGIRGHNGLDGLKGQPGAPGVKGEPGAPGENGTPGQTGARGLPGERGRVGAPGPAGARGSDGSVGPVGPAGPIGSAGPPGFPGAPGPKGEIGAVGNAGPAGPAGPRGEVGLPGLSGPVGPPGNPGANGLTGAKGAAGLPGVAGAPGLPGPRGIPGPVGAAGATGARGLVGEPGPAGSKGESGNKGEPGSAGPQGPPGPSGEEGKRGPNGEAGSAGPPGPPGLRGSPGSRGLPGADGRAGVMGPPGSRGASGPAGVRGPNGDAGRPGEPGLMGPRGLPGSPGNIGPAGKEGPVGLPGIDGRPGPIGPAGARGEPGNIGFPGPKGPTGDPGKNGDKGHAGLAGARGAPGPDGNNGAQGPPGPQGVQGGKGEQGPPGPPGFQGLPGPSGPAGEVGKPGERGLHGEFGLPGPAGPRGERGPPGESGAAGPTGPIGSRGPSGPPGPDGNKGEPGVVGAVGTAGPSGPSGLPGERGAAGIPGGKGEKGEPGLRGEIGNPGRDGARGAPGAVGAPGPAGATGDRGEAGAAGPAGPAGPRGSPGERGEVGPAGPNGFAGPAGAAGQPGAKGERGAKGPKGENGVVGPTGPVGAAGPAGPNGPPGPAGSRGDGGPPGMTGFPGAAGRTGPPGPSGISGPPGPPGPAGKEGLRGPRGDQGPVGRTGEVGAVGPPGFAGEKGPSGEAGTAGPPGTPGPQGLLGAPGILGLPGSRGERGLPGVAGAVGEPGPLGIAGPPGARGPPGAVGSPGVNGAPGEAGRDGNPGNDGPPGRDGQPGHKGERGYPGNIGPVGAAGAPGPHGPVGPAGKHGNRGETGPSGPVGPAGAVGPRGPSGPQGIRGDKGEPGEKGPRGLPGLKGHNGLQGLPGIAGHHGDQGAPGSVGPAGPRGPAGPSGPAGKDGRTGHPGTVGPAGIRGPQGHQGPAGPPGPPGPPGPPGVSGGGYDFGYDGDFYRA

[2] = target: T2, rat collagen, acid soluble, type I, rat tail (Upstate 08-115) (rat, UniProt P02454 152-1207; P02466 86-1125); experiment: dried collagen assay
T2 construct: tissue extract, gelled and dried in wells; also called dried rat collagen
T2 sequence (P02454 152-1207, chain 1 of 2): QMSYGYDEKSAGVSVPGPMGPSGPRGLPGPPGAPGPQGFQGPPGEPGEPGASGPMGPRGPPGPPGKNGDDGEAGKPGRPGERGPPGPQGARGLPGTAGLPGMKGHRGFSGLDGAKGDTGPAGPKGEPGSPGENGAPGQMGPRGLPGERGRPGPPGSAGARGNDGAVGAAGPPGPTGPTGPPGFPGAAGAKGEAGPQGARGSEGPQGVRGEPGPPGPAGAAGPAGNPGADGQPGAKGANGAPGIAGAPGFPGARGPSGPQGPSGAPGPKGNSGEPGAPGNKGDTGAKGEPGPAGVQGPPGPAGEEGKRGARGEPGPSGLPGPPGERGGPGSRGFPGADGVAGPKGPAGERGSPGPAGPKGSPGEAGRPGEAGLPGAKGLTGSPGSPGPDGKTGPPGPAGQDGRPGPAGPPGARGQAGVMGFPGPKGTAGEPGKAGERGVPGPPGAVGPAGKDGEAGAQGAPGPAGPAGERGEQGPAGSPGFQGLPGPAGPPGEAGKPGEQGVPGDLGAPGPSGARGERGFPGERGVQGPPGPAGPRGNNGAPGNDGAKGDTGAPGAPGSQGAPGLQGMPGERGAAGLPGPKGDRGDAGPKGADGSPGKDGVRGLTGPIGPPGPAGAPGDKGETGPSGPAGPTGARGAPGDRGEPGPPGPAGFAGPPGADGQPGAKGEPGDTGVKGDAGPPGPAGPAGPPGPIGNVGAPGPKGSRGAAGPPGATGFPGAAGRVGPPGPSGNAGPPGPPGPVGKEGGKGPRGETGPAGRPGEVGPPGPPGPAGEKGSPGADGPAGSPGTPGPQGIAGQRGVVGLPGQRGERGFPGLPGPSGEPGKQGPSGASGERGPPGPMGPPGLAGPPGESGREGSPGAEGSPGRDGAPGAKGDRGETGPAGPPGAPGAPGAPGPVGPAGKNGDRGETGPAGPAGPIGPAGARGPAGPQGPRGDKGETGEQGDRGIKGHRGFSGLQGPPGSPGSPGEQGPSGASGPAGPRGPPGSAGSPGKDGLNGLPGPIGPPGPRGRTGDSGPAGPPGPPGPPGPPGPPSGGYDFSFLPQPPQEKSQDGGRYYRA
T2 sequence (P02466 86-1125, chain 2 of 2): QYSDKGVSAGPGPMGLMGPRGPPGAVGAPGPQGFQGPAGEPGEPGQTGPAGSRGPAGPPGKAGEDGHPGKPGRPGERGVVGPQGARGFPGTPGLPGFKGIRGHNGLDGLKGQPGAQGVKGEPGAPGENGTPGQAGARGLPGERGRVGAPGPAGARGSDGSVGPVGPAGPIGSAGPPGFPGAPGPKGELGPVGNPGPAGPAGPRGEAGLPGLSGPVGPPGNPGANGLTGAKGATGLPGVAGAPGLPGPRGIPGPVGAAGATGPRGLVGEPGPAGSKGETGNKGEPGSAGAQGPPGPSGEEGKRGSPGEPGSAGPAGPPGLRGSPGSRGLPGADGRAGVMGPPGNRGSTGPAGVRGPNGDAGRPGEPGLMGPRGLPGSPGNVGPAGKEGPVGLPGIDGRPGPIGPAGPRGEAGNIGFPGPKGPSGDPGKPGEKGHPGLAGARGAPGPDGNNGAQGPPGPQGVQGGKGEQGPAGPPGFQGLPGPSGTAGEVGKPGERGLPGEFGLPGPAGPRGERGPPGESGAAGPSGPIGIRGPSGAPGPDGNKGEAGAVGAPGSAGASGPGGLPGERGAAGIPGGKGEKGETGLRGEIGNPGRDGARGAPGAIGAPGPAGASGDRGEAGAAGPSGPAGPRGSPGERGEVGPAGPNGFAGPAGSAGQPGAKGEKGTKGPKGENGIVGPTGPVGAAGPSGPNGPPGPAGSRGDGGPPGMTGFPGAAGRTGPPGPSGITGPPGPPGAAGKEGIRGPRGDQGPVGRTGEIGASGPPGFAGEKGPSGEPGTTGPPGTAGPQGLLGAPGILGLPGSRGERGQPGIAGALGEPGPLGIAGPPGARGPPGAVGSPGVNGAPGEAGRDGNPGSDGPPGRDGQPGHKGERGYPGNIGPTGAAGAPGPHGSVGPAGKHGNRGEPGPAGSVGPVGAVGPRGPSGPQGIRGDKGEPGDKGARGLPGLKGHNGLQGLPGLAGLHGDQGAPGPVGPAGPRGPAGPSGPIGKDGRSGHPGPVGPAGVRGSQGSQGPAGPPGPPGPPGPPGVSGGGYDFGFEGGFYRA

Row | % bound [1] [%] | % bound [2] [%] | Binder
1 | 36 | 40 | {Gd^T″}-GQ[Bta]HCTTRFPHHYCLYG (disulfide 5-14) [Compound ID 868]
2 | 75 | 67 | {Gd^T}-DWTCSGDEYTWHCNY[Aib] (disulfide 4-13; not fully specified (C-terminus); reading uncertain) [Compound ID 850]
3 | 85 | 88 | {Gd^T″}-GK([Gly-Gd^T″])WHCTTK(Gd^T″)FPHHYCLY[Bip] (disulfide 5-14; not fully specified (C-terminus), also called Comp ID No:800) [Compound ID 800]
4 | 53 | 55 | {Gd^T(3)}-K(Gd^T(3))K(Gd^T(3))WHCTTK(Gd^T(3))FPHHYCLY[Bip] (disulfide 5-14 (inferred)) [Compound ID 997]
5 | 78 | 79 | {Gd^T(3)}-GK([Gly-Gd^T(3)])WHCTTYFPHHYCLY[Bip] (disulfide 5-14) [Compound ID 950]
6 | 60 | 29 | {Gd^G}-GQWTCSGDAYTWHCAYE (disulfide 5-14 (inferred); not fully specified (C-terminus); reading uncertain) [Compound ID 820]
7 | 51 | 28 | {Gd^T}-GQWTCSGDEYTWHCNYA (disulfide 5-14 (inferred); not fully specified (C-terminus); reading uncertain) [Compound ID 841]
8 | 70 | 61 | GQWTCSGDAYTWHCNYE (disulfide 5-14 (inferred); not fully specified (N-terminus, C-terminus)) [Compound ID 838]
9 | 30 | 11 | {Gd^T}-GQWTCSGDEYTWHCAYE (disulfide 5-14 (inferred); not fully specified (C-terminus); reading uncertain) [Compound ID 839]
10 | 26 | 11 | {Gd^T″}-GAWTCSGDEYTWHCNYE (disulfide 5-14 (inferred); not fully specified (C-terminus)) [Compound ID 830]
11 | 64 | 60 | {Gd^T″}-GK([Gly-Gd^T″])QWHCTTYFPHHYCLYG (disulfide 6-15 (inferred)) [Compound ID 875]
12 | 19 | 28 | {Gd^T″}-GQWHCTTR[Bip]PHHYCLYG (disulfide 5-14) [Compound ID 881]
13 | 38 | 33 | {Gd^T″}-GQWHCTTRFPHH[Bip]CLYG (disulfide 5-14) [Compound ID 873]
14 | 38 | 19 | {Gd^T″}-GQWHCTTDFPHHYCL[Bpa]G (disulfide 5-14) [Compound ID 889]
15 | 48 | 45 | {Gd^T″}-GQWHCTTRFPHHYCLYGK(Gd^T″) (disulfide 5-14 (inferred); not fully specified (C-terminus)) [Compound ID 807]
16 | 52 | 42 | {Gd^T}-PPQWHCTTRF[Hyp]HHYCLYG (disulfide 6-15; not fully specified (C-terminus); reading uncertain) [Compound ID 856]
17 | 53 | 28 | {Gd^G}-GQWTCSGDEYTWHCNY (disulfide 5-14 (inferred); not fully specified (C-terminus); reading uncertain) [Compound ID 823]
18 | 60 | 45 | {Gd^T}-GQWHCTTR[1Nal]PHHYCLYG (disulfide 5-14; not fully specified (C-terminus); reading uncertain) [Compound ID 860]
19 | 20 | 15 | {Gd^T(3)}-GQWHCTTD[2Nal]PHHYCLYG (disulfide 5-14; not fully specified (C-terminus)) [Compound ID 894]
20 | 0 | 13 | {Gd^T″}-GQWHCTTD[Bpa]PHHYCLYG (disulfide 5-14) [Compound ID 882]

Row | % bound [1] [%] | % bound [2] [%] | Binder
21 | 23 | 11 | {Gd^T″}-GK([Gly-Gd^T″])WHCYK(Gd^T″)YFPHHYCLYG (disulfide 5-14 (inferred); not fully specified (C-terminus)) [Compound ID 991]
22 | 65 | 66 | {Gd^T″}-GK([Gly-Gd^T″])WHCYTYFPHHYCVYG-{NH(CH2)6NH2-Gd^T″} (disulfide 5-14 (inferred)) [Compound ID 999]
23 | 81 | 88 | {Gd^T″}-GK([Gly-Gd^T″])WHCYTK(Gd^T″)FPHHYCK(Gd^T″)YY (disulfide 5-14 (inferred)) [Compound ID 1013]
24 | 94 | 93 | {Gd^T″}-GK([Gly-Gd^T″])WHCYTK(Gd^T″)FPYHYCVYY (disulfide 5-14 (inferred)) [Compound ID 1011]
25 | 75 | 68 | {Gd^T″}-GK([Gly-Gd^T″])WHCYTYFPHHYCVYG-{1,4 AMB(Gd^T)} (disulfide 5-14 (inferred); reading uncertain) [Compound ID 1000]
26 | 71 | 75 | {Gd^T″}-GK([Gly-Gd^T″])WHCYTYFPHHYCVYG-{AEEA-Gd^T″} (disulfide 5-14 (inferred)) [Compound ID 998]
27 | 72 | 61 | {Gd^D}-K(Gd^D)K(Gd^D)WHCYTYFPHHYCVYG (disulfide 5-14 (inferred)) [Compound ID 1014]
28 | 25 | 19 | {Gd^T″}-GQWHCTTRFPHHYCLYG[dK](Gd^T″) (disulfide 5-14 (inferred); not fully specified (C-terminus)) [Compound ID 808]
29 | 87 | 71 | {Gd^T″}-GQWTCYGDEYTWYCNYE (disulfide 5-14 (inferred); not fully specified (C-terminus)) [Compound ID 826]
30 | 45 | 28 | GQWHCTTYFPHHYCLYG-{AEEA-Gd^G} (disulfide 5-14 (inferred); reading uncertain, no N-terminal chelate printed) [Compound ID 874]
31 | 55 | 48 | {Gd^T″}-GQWHCTTRFPHH[1Nal]CLYG (disulfide 5-14) [Compound ID 867]
32 | 78 | 64 | {Gd^T(3)}-GQWHCTTLFPHH[1Nal]CLYG (disulfide 5-14; not fully specified (C-terminus)) [Compound ID 913]
33 | 64 | 42 | {Gd^T}-DWTC[4Pal]GDEYTWHCNYE (disulfide 4-13; not fully specified (C-terminus); reading uncertain) [Compound ID 849]
34 | 79 | 70 | {Gd^T(3)}-GQWHCTTDFPHHYCL[2Nal]G (disulfide 5-14) [Compound ID 891]
35 | 73 | 79 | {Gd^T}-GQWHCTTYFPHHYCLYG (disulfide 5-14 (inferred); not fully specified (C-terminus); reading uncertain) [Compound ID 861]
36 | 41 | 35 | {Gd^T″}-GQ[2Nal]HCTTRFPHHYCLYG (disulfide 5-14) [Compound ID 872]
37 | 64 | 56 | {Gd^T}-PPQWHCTTRFPHHYCLYG (disulfide 6-15 (inferred); not fully specified (C-terminus); reading uncertain) [Compound ID 854]
38 | 0 | 16 | {Gd^T″}-GQWHCTTDFPH[Dap](Gd^T″)YCLYG (disulfide 5-14) [Compound ID 887]
39 | 38 | 30 | {Gd^T″}-GQWHCTTDFPH[2Pal]YCLYG (disulfide 5-14) [Compound ID 888]
